According to patent publication US20220315661A1 (Genmab, published 2022):
Several values for one entry are separate records, joined by “and”; a condition that tells them apart may be missing. Identical values can stand only once.

Assays:
kDR5ECDdelHis [1] = biological target: T1, kDR5ECDdelHis (human); assay: Bio-Layer Interferometry (Octet HTX), antibody on AHC biosensor, kDR5ECDdelHis in solution, n = 2
T1 construct: DR5ECDdelHis in which the DR5 signal peptide (aa 1-57) is replaced by that of Kappa 2F8; C-terminal His tag; also called soluble recombinant extracellular domain of human DR5; human recombinant DR5
T1 chain: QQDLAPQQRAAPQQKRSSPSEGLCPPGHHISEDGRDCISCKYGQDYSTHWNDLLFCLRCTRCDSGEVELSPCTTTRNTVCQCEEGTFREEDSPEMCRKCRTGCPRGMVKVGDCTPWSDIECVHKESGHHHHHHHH

Murine DR5 = biological target: T2, Murine DR5 (mouse, UniProt Q9QZM4 53-381, limits assumed); assay: flow cytometry (FIG. 3D)
T2 construct: also called mouse DR5; Murine DRS (Uniprot Q9QZM4)

[2] = biological target: DR5sh79-115ECDdel-FcRbHisCtag (human, with aa 79-115 replaced by the …); assay: ELISA, DR5 fusion protein captured by penta-his antibody
[3] = biological target: T3, Cyno DR5Mfdel-K420N (cynomolgus monkey DR5 with deletion of aa 185-213 and K420N), expressed on CHO-S cells (cynomolgus monkey); assay: flow cytometry on CHO-S cells expressing cynomolgus monkey DR5, average n = 4 (SD)
T3 construct: includes the signal peptide; also called CHO-S cells expressing cynomolgus monkey DR5
T3 chain: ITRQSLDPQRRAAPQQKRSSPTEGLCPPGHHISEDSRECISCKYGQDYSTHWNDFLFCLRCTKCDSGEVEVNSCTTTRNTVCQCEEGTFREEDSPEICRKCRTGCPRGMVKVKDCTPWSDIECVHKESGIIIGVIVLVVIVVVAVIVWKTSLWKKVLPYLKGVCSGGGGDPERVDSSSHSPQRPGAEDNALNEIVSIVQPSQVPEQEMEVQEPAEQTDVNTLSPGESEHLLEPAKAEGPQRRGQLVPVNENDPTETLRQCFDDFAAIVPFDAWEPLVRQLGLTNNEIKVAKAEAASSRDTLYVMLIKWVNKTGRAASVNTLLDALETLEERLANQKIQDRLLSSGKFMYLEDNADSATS

kDR5ECDdelHis [4] = biological target: T1, kDR5ECDdelHis; assay: Bio-Layer Interferometry (Octet HTX), antibody on AHC biosensor, kDR5ECDdelHis in solution, n = 3
DR5ECD-FcRbHisCtag = biological target: T4, DR5ECD-FcRbHisCtag (human); assay: ELISA, DR5 fusion protein captured on a penta-His antibody coat, detection with HRP goat anti-human IgG F(ab')2, OD 405 nm
T4 construct: also called fully human DR5 antigen; extracellular domain of human DR5 natural variant P32L

[5] = biological target: T5, DR5sh139-166ECDdel-FcRbHisCtag (human, with aa 139-166 replaced by the …); assay: as above
T5 chain: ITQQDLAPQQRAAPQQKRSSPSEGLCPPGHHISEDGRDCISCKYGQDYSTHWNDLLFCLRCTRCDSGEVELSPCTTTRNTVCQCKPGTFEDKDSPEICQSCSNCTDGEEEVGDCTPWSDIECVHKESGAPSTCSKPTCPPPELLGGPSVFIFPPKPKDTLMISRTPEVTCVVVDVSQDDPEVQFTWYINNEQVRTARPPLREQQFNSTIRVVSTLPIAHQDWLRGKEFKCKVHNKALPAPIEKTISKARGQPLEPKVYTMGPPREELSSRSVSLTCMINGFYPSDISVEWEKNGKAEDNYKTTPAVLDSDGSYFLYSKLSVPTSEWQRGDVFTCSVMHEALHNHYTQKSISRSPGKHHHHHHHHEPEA

T2 sequence (Q9QZM4 53-381 limits assumed): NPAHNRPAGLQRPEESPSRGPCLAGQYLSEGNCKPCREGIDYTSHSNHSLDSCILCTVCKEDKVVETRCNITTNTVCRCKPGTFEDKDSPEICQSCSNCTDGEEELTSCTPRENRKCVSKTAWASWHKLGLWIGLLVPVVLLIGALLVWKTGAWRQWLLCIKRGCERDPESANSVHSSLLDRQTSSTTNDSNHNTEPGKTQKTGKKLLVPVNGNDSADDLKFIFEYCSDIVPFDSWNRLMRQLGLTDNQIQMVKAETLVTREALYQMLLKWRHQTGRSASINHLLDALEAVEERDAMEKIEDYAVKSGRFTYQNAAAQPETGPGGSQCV

B1: IgG1-hDR5-05 (antibody)
heavy: not shown
light: DIQLTQSPSSLSASVGDRVTITCSASSSVSYMYWYQQKPGKAPKPWIYRTSNLASGVPSRFSGSGSGTDFTLTISSLQPEDFATYYCQQYHSYPPTFGGGTKVEIKRTVAAPSVFIFPPSDEQLKSGTASVVCLLNNFYPREAKVQWKVDNALQSGNSQESVTEQDSKDSTYSLSSTLTLSKADYEKHKVYACEVTHQGLSSPVTKSFNRGEC
notes: Humanized IgG1,kappa without the E430G mutation; also called WT counterpart of IgG1-hDR5-05-E430G
Work on B1 yielded a Kd (kDR5ECDdelHis [1]) of 28.5 nM.

B2: IgG1-hDR5-05-F405L (antibody)
heavy: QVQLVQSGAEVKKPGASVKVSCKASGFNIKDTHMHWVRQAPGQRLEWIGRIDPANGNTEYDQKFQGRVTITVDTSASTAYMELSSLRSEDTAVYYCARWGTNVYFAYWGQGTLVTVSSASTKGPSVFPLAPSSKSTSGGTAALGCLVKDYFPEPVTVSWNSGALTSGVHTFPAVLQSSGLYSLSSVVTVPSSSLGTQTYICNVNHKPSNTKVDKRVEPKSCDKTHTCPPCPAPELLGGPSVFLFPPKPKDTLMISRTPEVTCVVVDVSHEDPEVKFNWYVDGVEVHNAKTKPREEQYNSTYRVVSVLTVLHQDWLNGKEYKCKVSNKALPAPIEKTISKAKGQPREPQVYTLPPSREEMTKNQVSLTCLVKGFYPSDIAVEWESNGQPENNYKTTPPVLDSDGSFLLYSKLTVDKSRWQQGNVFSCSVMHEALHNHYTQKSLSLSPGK
light: DIQLTQSPSSLSASVGDRVTITCSASSSVSYMYWYQQKPGKAPKPWIYRTSNLASGVPSRFSGSGSGTDFTLTISSLQPEDFATYYCQQYHSYPPTFGGGTKVEIKRTVAAPSVFIFPPSDEQLKSGTASVVCLLNNFYPREAKVQWKVDNALQSGNSQESVTEQDSKDSTYSLSSTLTLSKADYEKHKVYACEVTHQGLSSPVTKSFNRGEC
notes: Humanized IgG1,kappa with F405L; also called HC hDR5-05-F405L / LC hDR5-05
B2: no binding (Murine DR5).

B3: IgG1-hDR5-05-E430G (antibody)
heavy: not shown
light: DIQLTQSPSSLSASVGDRVTITCSASSSVSYMYWYQQKPGKAPKPWIYRTSNLASGVPSRFSGSGSGTDFTLTISSLQPEDFATYYCQQYHSYPPTFGGGTKVEIKRTVAAPSVFIFPPSDEQLKSGTASVVCLLNNFYPREAKVQWKVDNALQSGNSQESVTEQDSKDSTYSLSSTLTLSKADYEKHKVYACEVTHQGLSSPVTKSFNRGEC
notes: Humanized IgG1,kappa with E430G (Eu numbering); also called IgG1-DR5-05-E430G; HC hDR5-05-E430G / LC hDR5-05
B3 was tested, and the binding result [2] was “no binding (tested: range 0.46-1,000 ng/mL)”, the EC50 [3] was 0.17 µg/mL and 1.16 nM and the Kd (kDR5ECDdelHis [4]) was 27.1 nM. For the same binder, the “EC50 (read off the curve)” value (DR5ECD-FcRbHisCtag) was about 0.02 µg/mL and the “EC50 (read off the curve)” value [5] was about 0.02 µg/mL.
